Biological target: T1, CD4 on CD4+ T cells (Jurkat CD4+ T cells; human primary CD4+ T cells) (human, UniProt P01730 26-458)
T1 construct: whole, on cells; also called CD4 receptor
Assay: flow cytometry, TAMRA-labelled nuclease, 1 h on Jurkat CD4+ T cells

| Binder | delivery (percent of cells TAMRA-positive) |
| --- | --- |
| modified nuclease L2 (other) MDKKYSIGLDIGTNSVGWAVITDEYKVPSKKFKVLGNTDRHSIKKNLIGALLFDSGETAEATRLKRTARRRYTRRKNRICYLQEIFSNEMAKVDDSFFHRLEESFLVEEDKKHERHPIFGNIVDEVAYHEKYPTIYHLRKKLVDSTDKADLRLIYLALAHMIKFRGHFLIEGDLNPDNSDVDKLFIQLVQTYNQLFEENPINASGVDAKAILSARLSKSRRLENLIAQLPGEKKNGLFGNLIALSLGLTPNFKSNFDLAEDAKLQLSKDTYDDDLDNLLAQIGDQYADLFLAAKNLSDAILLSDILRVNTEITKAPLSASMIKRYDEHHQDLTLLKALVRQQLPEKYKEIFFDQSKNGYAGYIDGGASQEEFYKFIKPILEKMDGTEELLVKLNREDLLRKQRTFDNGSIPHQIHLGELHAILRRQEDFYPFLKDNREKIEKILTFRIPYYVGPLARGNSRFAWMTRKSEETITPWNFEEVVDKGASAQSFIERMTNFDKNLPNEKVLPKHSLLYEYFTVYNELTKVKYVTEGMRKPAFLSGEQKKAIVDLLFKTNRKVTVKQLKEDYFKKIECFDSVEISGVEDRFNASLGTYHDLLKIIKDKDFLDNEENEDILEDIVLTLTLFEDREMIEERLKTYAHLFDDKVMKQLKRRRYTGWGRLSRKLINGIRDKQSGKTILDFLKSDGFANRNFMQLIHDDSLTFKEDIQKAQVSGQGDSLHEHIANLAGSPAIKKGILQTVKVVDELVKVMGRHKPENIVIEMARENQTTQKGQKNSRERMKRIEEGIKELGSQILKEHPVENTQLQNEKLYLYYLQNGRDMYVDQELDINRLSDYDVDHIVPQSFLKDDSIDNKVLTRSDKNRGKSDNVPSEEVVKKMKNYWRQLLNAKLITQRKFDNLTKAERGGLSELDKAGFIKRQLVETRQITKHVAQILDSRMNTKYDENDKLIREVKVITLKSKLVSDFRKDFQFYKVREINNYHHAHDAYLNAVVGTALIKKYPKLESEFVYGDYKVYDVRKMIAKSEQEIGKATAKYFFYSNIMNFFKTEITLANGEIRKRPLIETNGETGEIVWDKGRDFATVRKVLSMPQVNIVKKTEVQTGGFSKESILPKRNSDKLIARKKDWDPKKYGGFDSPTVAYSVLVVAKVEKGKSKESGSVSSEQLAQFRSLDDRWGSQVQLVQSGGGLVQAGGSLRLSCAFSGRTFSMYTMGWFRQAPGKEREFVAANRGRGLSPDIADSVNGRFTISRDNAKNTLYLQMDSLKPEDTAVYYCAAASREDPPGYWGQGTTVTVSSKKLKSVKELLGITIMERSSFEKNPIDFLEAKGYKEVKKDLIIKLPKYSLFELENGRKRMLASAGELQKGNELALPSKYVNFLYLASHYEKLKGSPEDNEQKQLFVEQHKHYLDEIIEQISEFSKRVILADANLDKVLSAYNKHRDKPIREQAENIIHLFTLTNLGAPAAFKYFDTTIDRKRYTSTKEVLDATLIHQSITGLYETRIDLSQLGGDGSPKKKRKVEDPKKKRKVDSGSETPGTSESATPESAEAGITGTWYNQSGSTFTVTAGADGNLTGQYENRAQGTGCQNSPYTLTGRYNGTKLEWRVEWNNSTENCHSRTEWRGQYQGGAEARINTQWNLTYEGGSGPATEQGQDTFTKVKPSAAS | > 99% |
| modified nuclease L1 (other) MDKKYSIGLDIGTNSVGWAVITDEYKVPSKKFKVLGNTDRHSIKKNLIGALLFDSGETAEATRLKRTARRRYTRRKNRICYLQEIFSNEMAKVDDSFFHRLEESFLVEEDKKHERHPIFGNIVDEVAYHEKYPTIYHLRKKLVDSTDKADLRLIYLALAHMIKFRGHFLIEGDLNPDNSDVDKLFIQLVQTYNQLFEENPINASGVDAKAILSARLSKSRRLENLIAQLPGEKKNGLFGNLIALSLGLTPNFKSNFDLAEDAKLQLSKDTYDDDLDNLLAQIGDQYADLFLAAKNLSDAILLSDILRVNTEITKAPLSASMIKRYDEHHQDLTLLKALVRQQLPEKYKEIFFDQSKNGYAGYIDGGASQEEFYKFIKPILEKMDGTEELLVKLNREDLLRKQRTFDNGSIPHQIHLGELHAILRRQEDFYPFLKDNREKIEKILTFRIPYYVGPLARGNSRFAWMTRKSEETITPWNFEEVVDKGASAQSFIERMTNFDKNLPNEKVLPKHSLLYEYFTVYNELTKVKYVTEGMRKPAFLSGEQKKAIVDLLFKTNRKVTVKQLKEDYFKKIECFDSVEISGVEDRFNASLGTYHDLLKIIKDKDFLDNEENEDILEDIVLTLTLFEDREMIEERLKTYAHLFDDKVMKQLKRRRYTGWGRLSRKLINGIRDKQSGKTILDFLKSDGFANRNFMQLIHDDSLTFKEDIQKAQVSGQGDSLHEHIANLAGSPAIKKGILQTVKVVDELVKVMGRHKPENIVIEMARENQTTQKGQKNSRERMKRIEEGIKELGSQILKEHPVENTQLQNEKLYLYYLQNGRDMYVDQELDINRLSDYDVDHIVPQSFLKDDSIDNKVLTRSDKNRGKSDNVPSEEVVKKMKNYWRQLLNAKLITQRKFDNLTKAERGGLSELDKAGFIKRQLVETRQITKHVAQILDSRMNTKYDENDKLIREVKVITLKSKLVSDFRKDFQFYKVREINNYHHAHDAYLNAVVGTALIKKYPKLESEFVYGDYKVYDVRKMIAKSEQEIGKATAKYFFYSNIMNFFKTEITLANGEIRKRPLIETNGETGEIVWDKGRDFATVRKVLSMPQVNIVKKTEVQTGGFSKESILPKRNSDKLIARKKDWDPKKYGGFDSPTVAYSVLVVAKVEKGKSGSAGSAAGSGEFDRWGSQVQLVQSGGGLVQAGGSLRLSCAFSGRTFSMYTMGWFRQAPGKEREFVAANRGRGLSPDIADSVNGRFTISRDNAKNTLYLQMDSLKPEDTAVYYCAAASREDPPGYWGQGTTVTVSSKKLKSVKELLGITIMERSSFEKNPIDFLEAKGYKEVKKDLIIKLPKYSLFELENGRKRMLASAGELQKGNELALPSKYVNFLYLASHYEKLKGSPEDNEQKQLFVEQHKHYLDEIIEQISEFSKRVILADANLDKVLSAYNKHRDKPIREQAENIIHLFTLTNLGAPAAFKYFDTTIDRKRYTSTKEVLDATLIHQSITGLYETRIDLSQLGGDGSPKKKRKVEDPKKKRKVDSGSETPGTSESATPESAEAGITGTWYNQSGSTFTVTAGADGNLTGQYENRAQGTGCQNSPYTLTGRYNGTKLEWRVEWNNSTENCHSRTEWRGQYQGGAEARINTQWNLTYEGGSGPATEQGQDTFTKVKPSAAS | > 99% |
| modified nuclease Zero (other) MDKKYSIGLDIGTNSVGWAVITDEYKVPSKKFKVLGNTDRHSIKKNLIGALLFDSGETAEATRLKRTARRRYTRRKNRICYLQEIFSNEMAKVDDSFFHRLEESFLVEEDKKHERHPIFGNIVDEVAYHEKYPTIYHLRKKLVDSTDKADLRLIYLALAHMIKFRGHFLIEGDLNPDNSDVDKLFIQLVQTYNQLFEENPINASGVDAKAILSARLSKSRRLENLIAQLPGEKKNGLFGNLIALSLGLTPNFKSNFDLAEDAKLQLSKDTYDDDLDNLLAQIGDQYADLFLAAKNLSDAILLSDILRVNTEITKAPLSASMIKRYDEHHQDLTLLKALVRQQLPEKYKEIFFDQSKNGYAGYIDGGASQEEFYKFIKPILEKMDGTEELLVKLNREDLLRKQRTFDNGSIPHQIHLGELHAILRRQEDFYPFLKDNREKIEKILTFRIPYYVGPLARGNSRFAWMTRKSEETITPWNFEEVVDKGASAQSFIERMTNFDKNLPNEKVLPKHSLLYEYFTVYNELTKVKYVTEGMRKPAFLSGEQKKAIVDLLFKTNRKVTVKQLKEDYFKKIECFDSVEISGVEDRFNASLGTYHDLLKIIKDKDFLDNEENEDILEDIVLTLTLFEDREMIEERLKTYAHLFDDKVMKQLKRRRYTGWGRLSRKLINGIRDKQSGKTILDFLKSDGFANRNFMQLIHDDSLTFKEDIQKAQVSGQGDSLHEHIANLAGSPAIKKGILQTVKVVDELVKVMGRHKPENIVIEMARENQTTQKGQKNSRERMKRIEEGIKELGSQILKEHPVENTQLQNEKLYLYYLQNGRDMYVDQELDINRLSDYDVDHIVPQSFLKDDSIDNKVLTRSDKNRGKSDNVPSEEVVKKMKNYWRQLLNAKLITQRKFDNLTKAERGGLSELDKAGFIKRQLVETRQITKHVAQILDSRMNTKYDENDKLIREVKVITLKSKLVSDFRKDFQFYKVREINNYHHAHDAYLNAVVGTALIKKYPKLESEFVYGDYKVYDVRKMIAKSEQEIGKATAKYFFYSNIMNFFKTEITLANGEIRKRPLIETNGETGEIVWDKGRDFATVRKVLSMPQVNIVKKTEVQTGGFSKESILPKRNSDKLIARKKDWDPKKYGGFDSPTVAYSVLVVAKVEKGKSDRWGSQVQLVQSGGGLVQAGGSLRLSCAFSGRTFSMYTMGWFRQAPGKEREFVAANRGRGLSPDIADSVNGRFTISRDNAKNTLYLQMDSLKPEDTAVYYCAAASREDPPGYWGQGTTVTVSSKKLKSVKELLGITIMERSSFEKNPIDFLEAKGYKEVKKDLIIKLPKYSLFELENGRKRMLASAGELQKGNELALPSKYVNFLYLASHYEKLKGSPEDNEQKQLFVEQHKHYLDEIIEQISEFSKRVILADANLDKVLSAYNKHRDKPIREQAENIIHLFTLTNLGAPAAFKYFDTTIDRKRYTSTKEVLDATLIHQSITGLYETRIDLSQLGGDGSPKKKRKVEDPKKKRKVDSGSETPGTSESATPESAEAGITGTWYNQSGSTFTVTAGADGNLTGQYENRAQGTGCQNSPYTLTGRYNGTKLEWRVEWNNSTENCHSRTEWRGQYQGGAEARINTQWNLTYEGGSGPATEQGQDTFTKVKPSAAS | > 99% |

— patent US20260071199A1 (JENTHERA THERAPEUTICS, published 2026)
